Molecular target: T1, SARS-CoV-2 spike stem helix peptide (residues 1146-1159), displayed on yeast (SARS-CoV-2)
T1 chain: DSFKEELDKYFKNH
Test: flow cytometry on cells
Settings: partners not purified

B1: S2P6 VH E1Q/VL E105D in scFv format (scFv, V domains shown)
VH: QVQLVQSGAEVKKPGASVKVSCKASGYTFTSQYMHWVRQAPGQGLEWIGIINPSGVHTSYAQKFQGRVTLTRDTSTSTLYMELSSLRSEDTAVYYCARGSPKGAFDYWGQGTLVTVSS
VL: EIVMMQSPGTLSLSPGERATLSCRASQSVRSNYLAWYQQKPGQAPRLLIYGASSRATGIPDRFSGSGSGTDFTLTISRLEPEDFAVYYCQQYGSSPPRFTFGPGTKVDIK
notes: not shown: HA, C-terminal, kept
  binding result: binds

— article doi:10.1101/2024.06.06.597810 (bioRxiv, 2024)
